Measurements taken from patent US20140199714A1, “METHOD FOR DETECTING CANCER CELLS METASTASIZING INTO SENTINEL LYMPH NODE” (SHINSHU UNIVERSITY, priority 2008, published 2014).

What was measured:
Type in all cases: cell-based
ICAM-1 on human LECs [1] = test: Immunohistochemical expression of ICAM-1 on cultured human LECs; conditions: 48 hrs. simultaneous treatment with 10^−7 or 10^−6M antagonist; n=5
Method: (§1) Using an indirect immunohistochemical technique, the inventors examined the effects of the supernatants of culture medium of two kinds of carcinoma cells, MDA-MB-231 and MCF-7, on the expression of adhesion molecules such as E-selectin, P-selectin, vascular cell adhesion molecule (VCAM)-1, and intercellular adhesion molecule (ICAM)-1 on the human LECs. The carcinoma cells were plated in DMEM/F12 with 10% FBS, which was replaced the following day with DMEM/F12 with 3% FBS, and then collected after overnight culture. The collected solution was centrifuged at 2,000 rpm for 5 min. at 4° C. To examine the effects of the supernatants on the expression of the adhesion molecules on the human LECs, 1 mL of each collected solution was added to starvation culture medium, EBM-2 with 3% FBS of the human LECs, and then stimulated for 48 hrs. on the cells. In some experiments, the supernatant solutions at different concentrations (1/100 or 1/10,000 dilution) were constructed with appropriate volumes of DMEM/F12 with 3% FBS.
Indirect immunohistochemical studies were performed on the cultured LECs seeded or glass slides coated with type I collagen, and then the cells were fixed with 3.3% formalin in phosphate-buffered saline solution (PBS), for 20 min. at room temperature. […]
In some experiments, the effects of 10 ng/mL CCL2 on the immunohistochemical expression of ICAM-1 on the human LECs were also evaluated using the same procedure as that mentioned above after overnight neutralization of CCL2 in the starvation culture medium with a CCL2 specific antibody (1.0 μg/mL). […]
To quantitatively examine the immunohistochemical data concerning the expression of ICAM-1 on the human LECs, the high-resolution digital microphotographs were processed using the SCION IMAGE analysis program. […]

ICAM-1 on human LECs [2] = test: as above; conditions: for staining with ICAM-1 on human LECs: 48 hrs. treatment with 100 ng/mL IL-6, 100 ng/mL VEGF-A, or 500 ng/mL VEGF-C; for expression of ICAM-1 on human LECs: 18 hrs.-stimulation with 10 ng/mL chemokine
[3] = test system: attachment of carcinoma cells to human LECs; test: In vitro human LEC attachment assay (ATP or MDA-MB-231 supernatant stimulation); conditions: p<0.01, n=5
Method: The human LECs were plated to form a monolayer on type I collagen-coated 35 mm plates and incubated to confluence at 37° C. in 5% O2, 5% CO2, and 90% N2. The LECs were kept in serum-starved medium of EBM-2 with 3% FBS. Selected plates were treated with 10^−7M ATP or the supernatant of culture medium of MDA-MB-231 cells for 48 hrs. In some experiments, 10^−6M suramin was simultaneously added to the plates during 48 hrs. treatment with 10^−7M ATP or the culture medium supernatant of MDA-MB-231 cells.
In some experiments, the plates were also treated with anti-human-ICAM-1 antibody (available from R&D Systems, US) for 30 min after 48 hrs. treatment with the culture medium supernatant of MDA-MB-231 or 10^−7M ATP. Breast carcinoma cells stained with PKH26 fluorescent dye (available from SIGMA, US) were then plated at 5×10^4 cells per plate and incubated for 30 min. at 37° C. Unbound cells were removed by aspiration and the plates washed with DMEM/F12 three times. Attachment was quantitated by counting cells under ×100 magnification using a microscope (available from Leica, Switzerland).

[4] = test system: F-actin in LECs derived from human collecting lymph vessel; test: Staining of cytoskeletal protein F-actin in human LECs; conditions: 10 ng/mL TNF-α; 1 ng/mL and 10 ng/mL IL-1β; 2 hrs. at 37° C.; vs negative control
Method: LECs derived from human collecting lymph vessel, which were transplanted into a culture system, were plated on glass slide, and repeatedly subcultured to confluence. Stimulating factors of 10 ng/mL of tumor necrosis factor-α (TNF-α) of Catalog No. T-0157 (available from SIGMA, US), 1 ng/mL and 10 ng/mL of interleukin-1β (IL-1β) of Catalog No. 200-01B (available from PeproTech, US) were respectively dissolved in EBM-2 containing 3% FBS of Catalog No. CC-3156 (available from Sankyo Junyaku Co., Ltd., Japan) and added onto the cells, and then the cells were incubated for 2 hrs. at 37° C. They were fixed with 3.7% formalin. They were washed with PBS solution, and then still stood in PBS solution containing 0.1% TRITON X-100 of Catalog No. X-100 (available from SIGMA, US) for 5 min. Additionally they were washed with PBS solution, and then phalloidin-FITC antibody of Catalog No. P-5282 (available from SIGMA, US) diluted 500 times with PBS solution containing 0.1% BSA was added thereto. They were still stood for 2 hrs. at room temperature. After they were washed with PBS solution, and mounted in MOBI GLOW MOUNTING MEDIUM. Also negative control was similarly prepared except for using no stimulating factor. […] The LECs of the negative control without the stimulating factor indicate obscure green fluorescence, and there were few expression of F-actin.

E-selectin on human LECs = test: Immunohistochemical expression of E-selectin on cultured human LECs
Method: as §1
(§2) Indirect immunohistochemical studies were performed on the cultured LECs seeded or glass slides coated with type I collagen, and then the cells were fixed with 3.3% formalin in phosphate-buffered saline solution (PBS), for 20 min. at room temperature. The cells were washed three times with PBS, and then incubated overnight at 4° C. with primary polyclonal human antisera to E-selectin/CD62E (dilution 10 μg/mL, available from R&D Systems, US), P-selectin/CD62P (dilution 10 μg/mL, available from R&D Systems, US), VCAM-1/CD106 (dilution 10 μg/mL, available from R&D Systems, US), and ICAM-1/CD54 (dilution 10 μg/mL, available from R&D Systems, US).
(§3) Before primary staining, the cultured cells were permeabilized with 0.1% TRITON-X. After washing three times in PBS, the cells were incubated for 1 hr. at room temperature with 1:100 diluted ALEXA FLUOR 488 donkey anti-mouse IgG (available from Invitrogen, US). The nuclei of cultured cells were counter-stained and mounted with PROLONG GOLD antifade reagent with 4′-6-diamidine-2-phenylindole (DAPI) (available from Molecular Probes, US), examined by a fluorescent microscope (Leica, Switzerland), and photographed.
(§4) Immunohistochemistry was performed on the cultured human LECs or the fresh-frozen SLNs isolated from the breast cancer patients. In brief, the cultured LECs were fixed with 10% formalin in the phosphate-buffered saline solution (PBS) at room temperature. The cells were incubated for 4 hrs. at room temperature with primary polyclonal human antisera platelet-endothelial cell adhesion molecule (PECAM)-1 (dilution 1:100, available from BD Biosciences, US), lymphatic vessel endothelial hyaluronan receptor (LYVE)-1 (dilution 1:50, available from RELIATech, Germany), PROX-1 (dilution 1:50, available from AngioBio, US), podoplanin (dilution 1:50, available from AngioBio, US), vascular endothelium growth factor receptor 3 (VEGF R3) (dilution 1:50, available from Santa Cruz, US), E-selectin/CD62E (dilution 1:50, available from R&D systems, US), P-selectin/CD62P (dilution 1:50, available from R&D systems, US), vascular cell adhesion molecule (VCAM)-1/CD106 (dilution 1:50, available from R&D systems, US), and intercellular adhesion molecule (ICAM)-1/CD54 (dilution 1:50, available from R&D systems, US). Before the staining, permeabilization of the cultured cells with 0.1% TRITON-X was performed. Then, the cells were stained using the following antibodies: ALEXA FLUOR 488 chicken anti-rabbit IgG or ALEXA FLUOR 488 donkey anti-mouse IgG (available from Invitrogen, US). The nuclei of the cultured cells were counter-stained and mounted with ProLong Gold antifade reagent with 4′-6-diamidine-2-phenylindole (DAPI) (available from Molecular Probes, US). The cultured cells were examined by a fluorescent microscope (available from Leica, Germany) and photographed. […]

VCAM-1 on human LECs = test: Immunohistochemical expression of VCAM-1 on cultured human LECs; conditions: for staining with VCAM-1 on human LECs: 48 hrs. treatment with 100 ng/mL IL-6, 100 ng/mL VEGF-A, or 500 ng/mL VEGF-C; for expression of VCAM-1 on human LECs: 18 hrs.-stimulation with 10 ng/mL chemokine
Method: as §1, §2, §3, §4

P-selectin on human LECs = test: Immunohistochemical expression of P-selectin on cultured human LECs; conditions: 48 hrs. treatment with 100 ng/mL IL-6, 100 ng/mL VEGF-A, or 500 ng/mL VEGF-C
Method: as §1, §2
Before primary staining, the cultured cells were permeabilized with 0.1% TRITON-X. After washing three times in PBS, the cells were incubated for 1 hr. at room temperature with 1:100 diluted ALEXA FLUOR 488 donkey anti-mouse IgG (available from Invitrogen, US). […]

human LECs = test: Proliferative ability of human LECs with lymphangiogenic factors
[5] = 48 hrs. treatment with 100 ng/mL IL-6, 100 ng/mL VEGF-A, or 500 ng/mL VEGF-C
[6] = 18 hrs.-stimulation with 10 ng/mL chemokine

C#CCn1c(=O)c2c(ncn2C)n(C)c1=O [DMPX, 3,7-dimethyl-1-propargyl xanthine]
effect on MDA-MB-231 supernatant-mediated expression of ICAM-1 on human LECs (ICAM-1 on human LECs [1]): no significant effect

CCCn1c(=O)c2[nH]c(C3CCCC3)nc2n(CCC)c1=O [DPCPX, 8-cyclopentyl-1,3-dipropylxanthine]
effect on MDA-MB-231 supernatant-mediated expression of ICAM-1 on human LECs (ICAM-1 on human LECs [1]): no significant effect

Cc1ccc(C(=O)Nc2ccc(S(=O)(=O)O)c3cc(S(=O)(=O)O)cc(S(=O)(=O)O)c23)cc1NC(=O)c1cccc(NC(=O)Nc2cccc(C(=O)Nc3cc(C(=O)Nc4ccc(S(=O)(=O)O)c5cc(S(=O)(=O)O)cc(S(=O)(=O)O)c45)ccc3C)c2)c1 [suramin]
effect on ATP-mediated expression of ICAM-1 on LECs (ICAM-1 on human LECs [2]; simultaneous treatment with 10^−7M or 10^−6M suramin, 10^−7M ATP, p<0.01, n=5): significant reduction
effect on MDA-MB-231 supernatant-mediated increase of attachment of carcinoma cells to human LECs ([3]; 48 hrs. simultaneous treatment with 10^−6M suramin): significant reduction
effect on ATP-mediated increased attachment of carcinoma cells to LECs ([3]; simultaneous treatment with 10^−6M suramin, 10^−7M ATP 48 hrs.): significantly reduced
effect on MDA-MB-231 supernatant-mediated expression of ICAM-1 on human LECs (ICAM-1 on human LECs [1]): significant reduction

IL-1β: interleukin-1β, stimulating factor
expression of F-actin (phalloidin-FITC fluorescence) [4]: increase of expression of F-actin

IL-6: cytokine
staining with ICAM-1 on human LECs (ICAM-1 on human LECs [2]): Slight staining
expression of E-selectin on human LECs (E-selectin on human LECs; [5]): No or little expression
staining with VCAM-1 on human LECs (VCAM-1 on human LECs): Slight staining
staining by P-selectin antiserum on human LECs (P-selectin on human LECs): strongly stained

VEGF
proliferative ability of the LECs (human LECs): Sthenia of proliferative ability

basic-FGF: basic fibroblast growth factor, lymphangiogenic factor
proliferative ability of the LECs (human LECs): Sthenia of proliferative ability

B1: VEGF-C: growth factor; lymphangiogenic factor (protein, UniProt P49767 112-227, looked up)
Vascular endothelial growth …: AHYNTEILKSIDNEWRKTQCMPREVCIDVGKEFGVATNTFFKPPCVSVYRCGGCCNSEGLQCMNTSTSYLSKTLFEITVPLSQGPKPVTISFANHTSCRCMSKLDVYRQVHSIIRR
proliferative ability of the LECs (human LECs): Sthenia of proliferative ability
staining with ICAM-1 on human LECs (ICAM-1 on human LECs [2]): Slight staining
expression of E-selectin on human LECs (E-selectin on human LECs; [5]): No or little expression
staining with VCAM-1 on human LECs (VCAM-1 on human LECs): Slight staining
staining by P-selectin antiserum on human LECs (P-selectin on human LECs): strongly stained

B2: CCL21: chemokine (protein, UniProt O00585 24-134, looked up)
C-C motif chemokine 21: SDGGAQDCCLKYSQRKIPAKVVRSYRKQEPSLGCSIPAILFLPRKRSQAELCADPKELWVQQLMQHLDKTPSPQKPAQGCRKDRGASKTGKKGKGSKGCKRTERSQTPKGP
expression of ICAM-1 on human LECs (ICAM-1 on human LECs [2]): slight staining
expression of E-selectin on human LECs (E-selectin on human LECs; [6]): Little or no expression
expression of VCAM-1 on human LECs (VCAM-1 on human LECs): Little or no expression

B3: CCL1: chemokine (protein, UniProt P22362 24-96, looked up)
C-C motif chemokine 1: KSMQVPFSRCCFSFAEQEIPLRAILCYRNTSSICSNEGLIFKLKRGKEACALDTVGWVQRHRKMLRHCPSKRK
expression of ICAM-1 on human LECs (ICAM-1 on human LECs [2]): slight staining
expression of E-selectin on human LECs (E-selectin on human LECs; [6]): Little or no expression
expression of VCAM-1 on human LECs (VCAM-1 on human LECs): Little or no expression

B4: CCL12: chemokine (protein, UniProt Q62401 23-104, looked up)
C-C motif chemokine 12: GPDAVSTPVTCCYNVVKQKIHVRKLKSYRRITSSQCPREAVIFRTILDKEICADPKEKWVKNSINHLDKTSQTFILEPSCLG
expression of ICAM-1 on human LECs (ICAM-1 on human LECs [2]): slight staining
expression of E-selectin on human LECs (E-selectin on human LECs; [6]): Little or no expression
expression of VCAM-1 on human LECs (VCAM-1 on human LECs): Little or no expression
